# In US20200138943A1 (Janssen / Centocor, published 2020):
# Residue numbers refer to the chain shown, from its start.
# T1: human recombinant IL-23 (human, UniProt P29460 23-328)
# T1 construct: p19-p40 heterodimer; also called hrIL-23; hIL-23
# T1 sequence 1: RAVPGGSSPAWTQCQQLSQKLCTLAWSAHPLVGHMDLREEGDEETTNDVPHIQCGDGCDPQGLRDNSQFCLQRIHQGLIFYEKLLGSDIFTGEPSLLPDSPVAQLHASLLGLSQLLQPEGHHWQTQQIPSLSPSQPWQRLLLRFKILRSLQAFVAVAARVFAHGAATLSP
# T1 sequence 2: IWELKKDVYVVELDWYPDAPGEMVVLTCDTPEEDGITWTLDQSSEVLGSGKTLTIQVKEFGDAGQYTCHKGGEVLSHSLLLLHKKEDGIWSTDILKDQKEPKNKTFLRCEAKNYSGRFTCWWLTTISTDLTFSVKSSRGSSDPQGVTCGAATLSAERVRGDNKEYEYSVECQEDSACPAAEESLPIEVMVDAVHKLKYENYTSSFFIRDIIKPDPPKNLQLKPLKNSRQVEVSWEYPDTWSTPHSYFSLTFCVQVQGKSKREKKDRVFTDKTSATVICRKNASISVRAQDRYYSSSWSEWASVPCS
# T2: murine IL-23 (mouse, UniProt Q9EQ14 22-196; P43432 23-335)
# T2 construct: also called mouse IL-23
# T2 sequence (looked up) 1: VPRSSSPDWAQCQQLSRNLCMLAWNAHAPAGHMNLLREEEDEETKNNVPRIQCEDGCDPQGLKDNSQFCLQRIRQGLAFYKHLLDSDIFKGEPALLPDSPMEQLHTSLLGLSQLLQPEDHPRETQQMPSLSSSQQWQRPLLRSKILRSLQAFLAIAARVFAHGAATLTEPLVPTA
# T2 sequence (looked up) 2: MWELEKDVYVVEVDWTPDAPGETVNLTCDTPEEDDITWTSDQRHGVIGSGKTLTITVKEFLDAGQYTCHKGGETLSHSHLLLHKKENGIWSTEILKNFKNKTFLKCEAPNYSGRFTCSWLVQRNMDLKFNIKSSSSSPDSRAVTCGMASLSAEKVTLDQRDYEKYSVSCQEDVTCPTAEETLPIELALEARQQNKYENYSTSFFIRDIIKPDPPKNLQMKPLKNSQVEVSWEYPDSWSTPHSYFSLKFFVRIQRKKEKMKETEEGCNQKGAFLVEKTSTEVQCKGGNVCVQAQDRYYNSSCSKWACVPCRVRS
# T3: human recombinant IL-12 (human, UniProt P29459 23-219; P29460 23-328)
# T3 construct: p35-p40 heterodimer; also called hrIL-12
# T3 sequence (looked up) 1: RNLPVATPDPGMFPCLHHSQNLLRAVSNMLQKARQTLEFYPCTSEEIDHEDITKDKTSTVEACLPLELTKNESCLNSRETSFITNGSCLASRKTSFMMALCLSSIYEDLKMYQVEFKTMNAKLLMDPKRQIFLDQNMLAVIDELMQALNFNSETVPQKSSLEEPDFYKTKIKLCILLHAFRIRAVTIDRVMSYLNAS
# T3 sequence (looked up) 2: T1 sequence 2
# T4: human recombinant p40 monomer (human, UniProt P29460 23-328)
# T4 construct: also called hrp40
# T4 sequence (looked up): T1 sequence 2
# B1: Soluble IL-23R (IL-23R-Fc) (Fc fusion, UniProt Q5VWK5 24-353, looked up, not shown: a dimerising Fc or GST)
# chain: GITNINCSGHIWVEPATIFKMGMNISIYCQAAIKNCQPRKLHFYKNGIKERFQITRINKTTARLWYKNFLEPHASMYCTAECPKHFQETLICGKDISSGYPPDIPDEVTCVIYEYSGNMTCTWNAGKLTYIDTKYVVHVKSLETEEEQQYLTSSYINISTDSLQGGKKYLVWVQAANALGMEESKQLQIHLDDIVIPSAAVISRAETINATVPKTIIYWDSQTTIEKVSCEMRYKATTNQTWNVKEFDTNFTYVQQSEFYLEPNIKYVFQVRCQETGKRYWQPWSSLFFHKTPETVPQVTSKAFQHDTWNSGLTVASISTGHLTSDNRGD
# B2: C1269 (antibody, V domains shown)
# VH: DVNLVESGGGLVKPGGSLKLSCAASGFTFSSYTMSWVRQTPEKRLEWVATISSGGTYTYYPDSVKGRFTISRDNAKNTLYLQMSSLKSEDTAIFYCTRDNHAYDRGPFFDSWGQGATLTVSS
# VL: DIVMSQSPSSLAVSVGEKVTMSCKSSQNLFYRNNQKNYLAWYQQKPGQSPTLLIYWTSTRESGVPDRFTGSGSGTDFTLTISRVKAEDLAVYYCQQYYSYPPTFGGGTKLEIK
# notes: Purified mouse monoclonal antibody; also called IL-23p19 mAb; mouse anti-human IL-23 mAb
# B3: C1273 (antibody, V domains shown)
# VH: B2 VH with I93M, S111Y
# VL: B2 VL with A12V, N33S, Y38H
# notes: as for B2
# B4: C1249 (antibody, V domains shown)
# VH: EVQLVESGGGLVQPKGSLKLSCAASGFNFNTYAMHWVCQAPGKGLEWIGRIRSKSHNYATDYADPVKDRFTISRDDSQGLLYLLMNNLKTEDTAMYYCMREGIYGSFAYWGQGTLVTVSA
# VL: DIVLTQSPASLAVSLGQRATISCRASKSVSSSAYSFFHWYQQKPGQPPKLLIYLASNLQSGVPARFSGSGSGTDFTLNIHPVEAEDAATYYCQHSGELPFTFGSGTKLEIK
# notes: as for B2
# B5: C1275 (antibody, V domains shown)
# VH: EVNLEESGGGLVQPGRSMKLSCVASGFTFSNYWMTWVRQSPEKGLEWVAEIRLKSNNYATHYAESVKGRFTISRDDSKSSVYLQMNNLRAEDTAIYYCTRGGGYDVGAWFAYWGQGTLVTVSA
# VL: DIVLTQSPASLAVSLGQRATISCRASENVEYYGTGLIQWYQQKPGQPPKLLIYASSNVESGVPARFSGSGSGTDFSLYIHPVEEDDIAMYFCQQSRKVPSTFGGGTKLEIK
# notes: as for B2
# What was measured:
# human recombinant IL-23 [1] = biological target: T1, human recombinant IL-23; experiment: blocking ELISA: biotinylated hrIL-23 preincubated with the titrated protein, binding to plate-immobilized IL-23R detected with HRP-streptavidin
# Method: (§1) In this experiment, IL-23R was immobilized on a plate. Biotinylated hrIL-23 was added to the plate either alone or after preincubation with individual IL-23p19 mAbs. Soluble IL-23R (IL-23R-Fc) was used as a positive control. IL-23 binding was detected with HRP-conjugated streptavidin. […] In contrast, when IL-12Rβ1 was immobilized on a plate, none of the IL-23p19 mAbs were able to inhibit IL-23/IL-12Rβ1 binding (data not shown).
# human recombinant IL-23 [2] = biological target: T1, human recombinant IL-23; experiment: as above; remark: listed apart in the source
# Method: as §1
# murine IL-23 = biological target: T2, murine IL-23; experiment: MSD ELISA: protein coated at 100 to 0 µg/mL, detected with 2 µg/mL Sulfo-TAG labeled mAb
# Method: One-hundred and fifty μl of 5% MSD Blocker A buffer was added to each well and incubated for 1 hr at room temperature. Plates were washed three times with 0.1 M HEPES buffer, pH 7.4. These protein-charged ELISA micro-wells were incubated with 25 μl of 2 μg/mL MSD Sulfo-TAG labeled C1249, C1269, or CNTO 209 mAbs. After incubation for 2 hours with shaking at room temperature, plates were washed 3 times with 0.1 M HEPES buffer (pH 7.4). MSD Read Buffer T was diluted with distilled water (4 fold) and dispensed at a volume of 150 μl/well and analyzed with a SECTOR imager 6000.
# human recombinant IL-23 [3] = biological target: T1, human recombinant IL-23; experiment: competition ELISA: hIL-23 coated on the plate, 10 nM labeled C1269 mixed with the unlabeled competitor titrated from 3000 nM to 0
# Method: […] of a 20 μg/ml hIL-23 coated on plate, mixed with 10 nM of labeled C1269 and serially diluted from 3000 nM to 0 unlabeled competitors, C1269 and C1249, in 25 μL. Relative binding was calculated by setting the signal in the absence of competitor to 100%.
# [4] = biological target: mutant human IL-23 protein 3220 (human) (UniProt P29460); experiment: MSD ELISA, coated IL-23 protein, Sulfo-TAG labeled mAb
# [5] = biological target: mutant human IL-23 protein 3397 (human) (UniProt P29460); experiment: as above
# human recombinant IL-12 = biological target: T3, human recombinant IL-12; experiment: cytokine capture ELISA: mAb coated on the plate, cytokine at 100 ng/ml, detected with biotinylated anti-p40 mAb and HRP-streptavidin
# Method: (§2) Purified mouse anti-human IL-23 mAbs were evaluated in cytokine capture ELISA to determine their antigen subunit specificity. Briefly, IL-23 mAbs were coated onto plates and incubated with 100 ng/ml (hr=human recombinant) hrIL-23, hrIL-12, and hrp40, respectively. Following incubation with biotinylated anti-p40 mAb, the binding was detected using HRP-conjugated streptavidin. An anti-p40 mAb and an anti-IL-12 mAb (20C2, Catalog No. 555065, BD Pharmingen, San Diego, Calif.) with known specificity were used as controls.
# [6] = biological target: T4, human recombinant p40 monomer; experiment: as above
# Method: as §2
# human recombinant IL-23 [7] = biological target: T1, human recombinant IL-23; experiment: blocking ELISA: biotinylated hrIL-23 preincubated with the titrated mAb, binding to plate-immobilized IL-23R detected with HRP-streptavidin
# Method: as §1
# human recombinant IL-23 [8] = biological target: T1, human recombinant IL-23; experiment: ELISA: mAb immobilized on the plate, biotinylated IL-23 (bt.IL-23) titrated from about 0.01 to 100 ng/ml
Binder,IC50 (read off the curve) (human recombinant IL-23 [1]) [µg/mL],IC50 (read off the curve) (human recombinant IL-23 [2]) [µg/mL],binding result (murine IL-23),IC50 (read off the curve) (human recombinant IL-23 [3]) [nM],percent reduction of binding activity against wild-type human IL-23 [4] [%],percent reduction of binding against wild-type human IL-23 [5] [%],binding result (human recombinant IL-12),binding result [6],IC50 (read off the curve) (human recombinant IL-23 [7]) [µg/mL],binding result (human recombinant IL-23 [8])
B1,~0.04,~0.05,,,,,,,,
B2,,,no binding,~20,> 80,90,no binding (tested: 100 ng/ml),no binding (tested: 100 ng/ml),~0.07,
B3,,,,,,,no binding (tested: 100 ng/ml),no binding (tested: 100 ng/ml),~0.1,
B4,,,no binding,,> 80,95,no binding (tested: 100 ng/ml),no binding (tested: 100 ng/ml),,binds
B5,,,,,,,no binding (tested: 100 ng/ml),no binding (tested: 100 ng/ml),,binds
